# PMC3257281
# How the values were obtained:
# [1] = target: rabbit intestinal mucin (rabbit)
# [2] = target: rabbit intestinal mucin (rabbit); assay: ELISA
# [3] = target: rabbit intestinal mucin (rabbit); assay: binding to mucin-coupled Sepharose resin, Scatchard plot; rabbit mucin coupled to NHS-activated sepharose; different amounts of GbpA protein added to 400 µl resin, 2 h, room temperature; unbound protein measured after centrifugation; Kd from bound vs. bound/free
# [4] = target: rabbit intestinal mucin (rabbit); assay: binding to mucin-coupled Sepharose resin, Scatchard plot
Substance,inhibition of binding of biotinylated wild type V. cholerae N16961 to mucin-coated wells pre-treated with increasing concentrations of the protein; value at saturation [1],Kd [2],Kd [3],Kd [4]
"GbpA(Y61A), full length GbpA with tyrosine 61 changed to alanine (from UniProt Q9KLD5 24-485) (natural protein)",83%,14.7 µM,14.1 µM,–
"GbpA_(D1–3), GbpA domains 1 to 3 (residues 24-414) (from UniProt Q9KLD5 24-414) (domain or fragment)",–,13.2 µM,12.5 µM,–
"GbpAfl, mature full-length GlcNAc binding protein A (residues 24-485) (from UniProt Q9KLD5 24-485) (natural protein)",83%,7.8 µM,–,9.4 µM
"GbpAD1, GbpA domain 1 (residues 24-203) (from UniProt Q9KLD5 24-203) (domain or fragment)",–,8.7 µM,–,–
"GbpAD3, GbpA domain 3 (domain or fragment)",–,76.4 µM,–,–
